T1: FcγRIIb extracellular domain with C-terminal His tag (human, UniProt P31994 43-217)
T1 construct: extracellular domain; expressed in FreeStyle293 cells; analyte in the Biacore assay; also called FcgRIIb; 2b; not shown: His tag at the C terminus
T1 sequence (looked up): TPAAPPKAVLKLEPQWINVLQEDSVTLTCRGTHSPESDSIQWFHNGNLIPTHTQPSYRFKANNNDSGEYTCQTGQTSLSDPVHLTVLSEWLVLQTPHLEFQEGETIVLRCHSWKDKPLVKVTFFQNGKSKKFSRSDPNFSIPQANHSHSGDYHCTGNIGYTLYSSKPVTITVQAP

B1: GpH7-B3 variant G236_09D/GpL16-k0 (antibody, human IgG1, kappa)
heavy: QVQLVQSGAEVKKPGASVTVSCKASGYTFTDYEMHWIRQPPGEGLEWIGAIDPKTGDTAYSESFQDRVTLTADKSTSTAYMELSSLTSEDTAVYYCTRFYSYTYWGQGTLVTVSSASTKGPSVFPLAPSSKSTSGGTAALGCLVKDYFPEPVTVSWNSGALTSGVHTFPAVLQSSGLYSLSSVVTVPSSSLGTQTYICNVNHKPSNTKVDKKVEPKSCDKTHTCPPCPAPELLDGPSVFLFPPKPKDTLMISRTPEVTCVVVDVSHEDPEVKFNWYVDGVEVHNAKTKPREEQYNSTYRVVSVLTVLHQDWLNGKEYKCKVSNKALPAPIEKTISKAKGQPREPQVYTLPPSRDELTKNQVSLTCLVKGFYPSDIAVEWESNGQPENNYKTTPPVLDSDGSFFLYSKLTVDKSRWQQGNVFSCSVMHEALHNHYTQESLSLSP
light: DIVMTQSPLSLPVTPGEPASISCQASESLVHSNRNTYLHWYLQKPGQSPQLLIYKVSNRFSGVPDRFSGSGSGTDFTLKISRVEAEDVGVYYCSQNTHVPPTFGQGTKVEIERTVAAPSVFIFPPSDEQLKSGTASVVCLLNNFYPREAKVQWKVDNALQSGNSQESVTEQDSKDSTYSLSSTLTLSKADYEKHKVYACEVTHQGLSSPVTKSFNRGEC
notes: homodimerized; mutation in both H chains; also called Ho Ab G236_09D
B2: GpH7-B3 variant S239_03V/GpL16-k0 (antibody, human IgG1, kappa)
heavy: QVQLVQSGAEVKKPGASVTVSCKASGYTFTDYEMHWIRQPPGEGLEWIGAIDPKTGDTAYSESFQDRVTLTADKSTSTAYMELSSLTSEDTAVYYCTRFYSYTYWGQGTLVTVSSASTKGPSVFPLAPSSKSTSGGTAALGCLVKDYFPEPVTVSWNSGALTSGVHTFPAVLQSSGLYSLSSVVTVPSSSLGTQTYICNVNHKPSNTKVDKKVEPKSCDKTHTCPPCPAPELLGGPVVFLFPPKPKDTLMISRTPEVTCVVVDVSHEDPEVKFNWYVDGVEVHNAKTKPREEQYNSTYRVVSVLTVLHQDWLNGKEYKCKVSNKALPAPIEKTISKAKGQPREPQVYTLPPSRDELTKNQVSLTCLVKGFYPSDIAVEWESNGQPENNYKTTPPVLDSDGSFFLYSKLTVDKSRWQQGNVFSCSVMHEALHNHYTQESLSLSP
light: B1 light
notes: homodimerized; mutation in both H chains; also called Ho Ab S239_03V
B3: GpH7-B3 variant K326_09D/GpL16-k0 (antibody, human IgG1, kappa)
heavy: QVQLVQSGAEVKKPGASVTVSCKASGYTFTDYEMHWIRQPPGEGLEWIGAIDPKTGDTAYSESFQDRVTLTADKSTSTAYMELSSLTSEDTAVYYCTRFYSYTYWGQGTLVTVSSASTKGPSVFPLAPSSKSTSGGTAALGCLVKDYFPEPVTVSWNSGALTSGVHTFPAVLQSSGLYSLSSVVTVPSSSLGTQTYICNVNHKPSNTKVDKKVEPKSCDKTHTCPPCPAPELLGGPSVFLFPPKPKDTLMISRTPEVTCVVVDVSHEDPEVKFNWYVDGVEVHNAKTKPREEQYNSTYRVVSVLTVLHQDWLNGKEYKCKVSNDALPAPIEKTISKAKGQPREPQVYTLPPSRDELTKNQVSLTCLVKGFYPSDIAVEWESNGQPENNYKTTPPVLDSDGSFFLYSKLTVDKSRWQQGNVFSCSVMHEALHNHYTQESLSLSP
light: B1 light
notes: homodimerized; mutation in both H chains; also called Ho Ab K326_09D
B4: GpH7-B3 variant H268_18N/GpL16-k0 (antibody, human IgG1, kappa)
heavy: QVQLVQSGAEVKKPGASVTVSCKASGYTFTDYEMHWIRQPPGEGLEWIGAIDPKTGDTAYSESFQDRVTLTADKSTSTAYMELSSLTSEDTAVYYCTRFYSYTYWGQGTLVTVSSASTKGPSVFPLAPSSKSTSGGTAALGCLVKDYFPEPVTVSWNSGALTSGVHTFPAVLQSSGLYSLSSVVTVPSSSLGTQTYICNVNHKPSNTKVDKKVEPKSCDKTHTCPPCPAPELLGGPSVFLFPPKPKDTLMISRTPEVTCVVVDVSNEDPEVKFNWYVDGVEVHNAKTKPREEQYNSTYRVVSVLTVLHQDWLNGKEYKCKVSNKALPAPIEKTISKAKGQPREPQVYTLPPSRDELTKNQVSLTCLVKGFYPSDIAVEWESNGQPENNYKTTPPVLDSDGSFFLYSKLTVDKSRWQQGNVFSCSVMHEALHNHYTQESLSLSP
light: B1 light
notes: homodimerized; mutation in both H chains; also called Ho Ab H268_18N
B5: GpH7-B3 variant P238_15Y/GpL16-k0 (antibody, human IgG1, kappa)
heavy: not shown
light: B1 light
notes: homodimerized; mutation in both H chains; also called Ho Ab P238_15Y
B6: GpH7-B3 variant G237_04F/GpL16-k0 (antibody, human IgG1, kappa)
heavy: not shown
light: B1 light
notes: homodimerized; mutation in both H chains; also called Ho Ab G237_04F
B7: GpH7-B3 variant K334_14T/GpL16-k0 (antibody, human IgG1, kappa)
heavy: not shown
light: B1 light
notes: homodimerized; mutation in both H chains; also called Ho Ab K334_14T
B8: GpH7-B3 variant H268_10E/GpL16-k0 (antibody, human IgG1, kappa)
heavy: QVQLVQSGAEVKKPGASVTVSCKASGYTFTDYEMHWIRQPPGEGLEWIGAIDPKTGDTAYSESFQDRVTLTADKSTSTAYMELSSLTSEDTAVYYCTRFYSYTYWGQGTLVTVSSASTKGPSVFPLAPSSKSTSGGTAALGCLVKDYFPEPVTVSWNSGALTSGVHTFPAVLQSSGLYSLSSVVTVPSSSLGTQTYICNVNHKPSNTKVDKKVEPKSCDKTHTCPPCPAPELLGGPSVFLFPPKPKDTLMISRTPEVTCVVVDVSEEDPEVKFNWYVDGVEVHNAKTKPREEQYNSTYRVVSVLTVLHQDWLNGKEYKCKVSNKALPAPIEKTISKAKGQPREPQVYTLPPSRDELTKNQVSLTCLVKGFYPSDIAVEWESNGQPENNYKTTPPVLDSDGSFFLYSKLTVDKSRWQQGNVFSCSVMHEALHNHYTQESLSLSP
light: B1 light
notes: homodimerized; mutation in both H chains; also called Ho Ab H268_10E
B9: GpH7-B3 variant K326_03V/GpL16-k0 (antibody, human IgG1, kappa)
heavy: not shown
light: B1 light
notes: homodimerized; mutation in both H chains; also called Ho Ab K326_03V
B10: GpH7-B3 variant P238_04F/GpL16-k0 (antibody, human IgG1, kappa)
heavy: not shown
light: B1 light
notes: homodimerized; mutation in both H chains; also called Ho Ab P238_04F
B11: GpH7-B3 variant I332_15Y/GpL16-k0 (antibody, human IgG1, kappa)
heavy: not shown
light: B1 light
notes: homodimerized; mutation in both H chains; also called Ho Ab I332_15Y
B12: GpH7-B3 variant K334_13S/GpL16-k0 (antibody, human IgG1, kappa)
heavy: not shown
light: B1 light
notes: homodimerized; mutation in both H chains; also called Ho Ab K334_13S
B13: GpH7-B3 variant K326_08L/GpL16-k0 (antibody, human IgG1, kappa)
heavy: not shown
light: B1 light
notes: homodimerized; mutation in both H chains; also called Ho Ab K326_08L
B14: GpH7-B3 variant K326_10E/GpL16-k0 (antibody, human IgG1, kappa)
heavy: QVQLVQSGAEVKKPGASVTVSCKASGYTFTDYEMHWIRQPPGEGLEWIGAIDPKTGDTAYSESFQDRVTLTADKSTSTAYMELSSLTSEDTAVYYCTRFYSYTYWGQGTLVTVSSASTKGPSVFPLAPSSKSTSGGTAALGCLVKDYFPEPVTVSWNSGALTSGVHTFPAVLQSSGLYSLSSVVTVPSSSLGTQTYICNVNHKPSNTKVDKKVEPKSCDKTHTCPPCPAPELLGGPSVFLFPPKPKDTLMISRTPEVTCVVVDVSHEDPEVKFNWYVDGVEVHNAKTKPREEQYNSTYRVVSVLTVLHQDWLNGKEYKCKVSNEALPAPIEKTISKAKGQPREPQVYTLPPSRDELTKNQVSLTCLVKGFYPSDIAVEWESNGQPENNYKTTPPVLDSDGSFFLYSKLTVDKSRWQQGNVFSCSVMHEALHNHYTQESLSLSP
light: B1 light
notes: homodimerized; mutation in both H chains; also called Ho Ab K326_10E
B15: GpH7-B3 variant I332_09D/GpL16-k0 (antibody, human IgG1, kappa)
heavy: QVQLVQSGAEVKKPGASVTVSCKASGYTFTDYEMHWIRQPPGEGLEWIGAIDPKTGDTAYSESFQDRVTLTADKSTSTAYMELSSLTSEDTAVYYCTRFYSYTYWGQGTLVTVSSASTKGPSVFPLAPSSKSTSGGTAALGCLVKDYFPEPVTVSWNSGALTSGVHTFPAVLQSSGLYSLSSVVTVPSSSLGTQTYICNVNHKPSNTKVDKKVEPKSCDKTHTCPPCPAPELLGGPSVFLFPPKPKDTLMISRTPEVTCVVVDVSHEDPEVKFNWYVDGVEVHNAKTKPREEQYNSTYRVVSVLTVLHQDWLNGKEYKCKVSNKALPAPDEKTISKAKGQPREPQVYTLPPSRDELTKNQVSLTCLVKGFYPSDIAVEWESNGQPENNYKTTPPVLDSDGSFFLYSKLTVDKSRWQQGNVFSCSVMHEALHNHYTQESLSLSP
light: B1 light
notes: homodimerized; mutation in both H chains; also called Ho Ab I332_09D
B16: GpH7-B3 variant K334_04F/GpL16-k0 (antibody, human IgG1, kappa)
heavy: not shown
light: B1 light
notes: homodimerized; mutation in both H chains; also called Ho Ab K334_04F
B17: GpH7-B3 variant T335_07I/GpL16-k0 (antibody, human IgG1, kappa)
heavy: not shown
light: B1 light
notes: homodimerized; mutation in both H chains; also called Ho Ab T335_07I
B18: GpH7-B3 variant K326_20W/GpL16-k0 (antibody, human IgG1, kappa)
heavy: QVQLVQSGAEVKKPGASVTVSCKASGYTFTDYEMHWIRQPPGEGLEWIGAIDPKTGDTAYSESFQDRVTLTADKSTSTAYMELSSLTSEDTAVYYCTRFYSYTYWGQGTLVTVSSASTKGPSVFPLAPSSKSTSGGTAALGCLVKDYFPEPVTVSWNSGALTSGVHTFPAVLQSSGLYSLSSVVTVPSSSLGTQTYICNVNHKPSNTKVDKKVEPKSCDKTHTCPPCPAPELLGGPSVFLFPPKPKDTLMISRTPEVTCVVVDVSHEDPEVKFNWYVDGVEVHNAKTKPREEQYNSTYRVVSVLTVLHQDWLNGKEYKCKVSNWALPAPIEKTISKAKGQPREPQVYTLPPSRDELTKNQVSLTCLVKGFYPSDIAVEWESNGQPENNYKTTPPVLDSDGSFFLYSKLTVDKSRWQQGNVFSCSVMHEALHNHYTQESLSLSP
light: B1 light
notes: homodimerized; mutation in both H chains; also called Ho Ab K326_20W
B19: GpH7-B3 variant G237_20W/GpL16-k0 (antibody, human IgG1, kappa)
heavy: not shown
light: B1 light
notes: homodimerized; mutation in both H chains; also called Ho Ab G237_20W
B20: GpH7-B3 variant I332_04F/GpL16-k0 (antibody, human IgG1, kappa)
heavy: not shown
light: B1 light
notes: homodimerized; mutation in both H chains; also called Ho Ab I332_04F
B21: GpH7-B3 variant G236_10E/GpL16-k0 (antibody, human IgG1, kappa)
heavy: not shown
light: B1 light
notes: homodimerized; mutation in both H chains; also called Ho Ab G236_10E
B22: GpH7-B3 variant K334_07I/GpL16-k0 (antibody, human IgG1, kappa)
heavy: not shown
light: B1 light
notes: homodimerized; mutation in both H chains; also called Ho Ab K334_07I
B23: GpH7-B3 variant H268_01G/GpL16-k0 (antibody, human IgG1, kappa)
heavy: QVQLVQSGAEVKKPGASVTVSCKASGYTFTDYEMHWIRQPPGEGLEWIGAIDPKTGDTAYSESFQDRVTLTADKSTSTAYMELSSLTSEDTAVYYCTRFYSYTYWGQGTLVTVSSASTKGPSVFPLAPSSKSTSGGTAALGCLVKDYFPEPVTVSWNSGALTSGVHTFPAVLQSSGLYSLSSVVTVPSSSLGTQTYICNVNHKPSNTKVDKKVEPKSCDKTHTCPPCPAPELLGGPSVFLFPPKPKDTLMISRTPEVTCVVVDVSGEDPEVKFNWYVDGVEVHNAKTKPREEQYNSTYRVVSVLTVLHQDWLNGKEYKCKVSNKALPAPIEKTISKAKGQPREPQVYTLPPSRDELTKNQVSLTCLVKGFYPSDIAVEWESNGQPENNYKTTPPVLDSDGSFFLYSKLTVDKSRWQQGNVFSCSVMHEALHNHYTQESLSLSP
light: B1 light
notes: homodimerized; mutation in both H chains; also called Ho Ab H268_01G
B24: GpH7-B3 variant T335_10E/GpL16-k0 (antibody, human IgG1, kappa)
heavy: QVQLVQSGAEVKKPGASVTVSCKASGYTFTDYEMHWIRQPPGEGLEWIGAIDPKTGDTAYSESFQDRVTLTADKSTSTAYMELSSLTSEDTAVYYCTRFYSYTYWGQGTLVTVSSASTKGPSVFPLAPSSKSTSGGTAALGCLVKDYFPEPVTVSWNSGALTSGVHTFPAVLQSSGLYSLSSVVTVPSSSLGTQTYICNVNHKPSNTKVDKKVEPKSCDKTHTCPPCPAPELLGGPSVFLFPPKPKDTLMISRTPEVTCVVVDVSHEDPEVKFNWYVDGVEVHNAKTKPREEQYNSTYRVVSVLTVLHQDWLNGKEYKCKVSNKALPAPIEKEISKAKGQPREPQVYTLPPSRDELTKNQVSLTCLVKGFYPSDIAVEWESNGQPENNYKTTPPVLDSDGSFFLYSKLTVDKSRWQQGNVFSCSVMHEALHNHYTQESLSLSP
light: B1 light
notes: homodimerized; mutation in both H chains; also called Ho Ab T335_10E
B25: GpH7-B3 variant S267_06M/GpL16-k0 (antibody, human IgG1, kappa)
heavy: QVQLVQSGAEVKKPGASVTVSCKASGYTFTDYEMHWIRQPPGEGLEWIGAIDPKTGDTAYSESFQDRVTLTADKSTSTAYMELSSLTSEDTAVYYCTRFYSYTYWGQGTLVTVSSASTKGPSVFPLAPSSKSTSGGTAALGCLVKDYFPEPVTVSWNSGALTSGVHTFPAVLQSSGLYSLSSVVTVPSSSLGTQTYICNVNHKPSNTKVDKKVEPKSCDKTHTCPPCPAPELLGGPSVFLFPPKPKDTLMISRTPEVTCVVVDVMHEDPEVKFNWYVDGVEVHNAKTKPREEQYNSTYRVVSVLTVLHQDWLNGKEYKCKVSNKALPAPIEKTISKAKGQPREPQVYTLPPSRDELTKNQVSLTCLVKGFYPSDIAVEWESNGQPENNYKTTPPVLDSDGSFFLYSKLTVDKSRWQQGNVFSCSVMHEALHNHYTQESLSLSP
light: B1 light
notes: homodimerized; mutation in both H chains; also called Ho Ab S267_06M
B26: GpH7-B3 variant S239_10E/GpL16-k0 (antibody, human IgG1, kappa)
heavy: not shown
light: B1 light
notes: homodimerized; mutation in both H chains; also called Ho Ab S239_10E
B27: GpH7-B3 variant K326_14T/GpL16-k0 (antibody, human IgG1, kappa)
heavy: not shown
light: B1 light
notes: homodimerized; mutation in both H chains; also called Ho Ab K326_14T

The target in this test is T1, FcγRIIb extracellular domain with …. In words: SPR (Biacore), captured antibody, FcγRIIb analyte; binding relative to GpH7-B3/GpL16-k0 = 100. Background: In SPR one partner is held on a chip, and binding of the other changes the refractive index at the surface.
With B1, the Ho/Con_2b was 207 % of control.
For B2, the Ho/Con_2b is 108 % of control.
Consider B3, for which the Ho/Con_2b was 240 % of control.
Turning to B4, the Ho/Con_2b is 179 % of control.
The result for B5 reads 114 % of control.
With B6, the Ho/Con_2b is 140 % of control.
With B7, the Ho/Con_2b is 138 % of control.
The result for B8 reads 275 % of control; that for B9, 184 % of control.
The result for B10 reads 209 % of control; that for B11, 109 % of control.
B12: the Ho/Con_2b is 117 % of control.
In the case of B13, the Ho/Con_2b was 168 % of control.
In the case of B14, the Ho/Con_2b is 237 % of control.
For B15 the value was 182 % of control.
Regarding B16, the Ho/Con_2b was 115 % of control.
For B17 the value was 104 % of control; for B18, 132 % of control; for B19, 166 % of control.
The result for B20 reads 117 % of control; that for B21, 114 % of control; that for B22, 137 % of control.
Take B23: the Ho/Con_2b was 158 % of control.
For B24 the value was 108 % of control; for B25, 187 % of control; for B26, 175 % of control.
For B27 the value was 177 % of control.

The record behind these values is patent US20180155451A1 (published 2018).
